Article PMC8091585
One block for each molecule: values may come before it.

What was measured:
[1] = target: Pyruvate:ferredoxin oxidoreductase PFOR1 of Thermoanaerobacter kivui (Thermoanaerobacter kivui); experiment: SEC; analytical size exclusion chromatography on a calibrated Superdex 200 column, buffer E (50 mM Tris/HCl, 150 mM NaCl, 20 mM MgSO4, 2 mM DTE, 4 µM resazurin, 20% glycerol, pH 7.5), size standards ovalbumin, albumin, catalase, ferritin
[2] = target: Pyruvate:ferredoxin oxidoreductase PFOR1 of Thermoanaerobacter kivui (Thermoanaerobacter kivui)

stoichiometry N [1]: 2
Molecule: Pyruvate:ferredoxin oxidoreductase PFOR1 of Thermoanaerobacter kivui (enzyme)

Km for Fd of the pyruvate-dependent Fd reduction by purified PFOR1 (enzyme activity, 66 °C, pH 7.5, Fd 0-50 µM) [2]: 19.1 µM
B1: Ferredoxin isolated from Clostridium pasteurianum (natural protein)
chain: MAYKIADSCVSCGACASECPVNAISQGDSIFVIDADTCIDCGNCANVCPVGAPVQE
